# Assay results taken from article PMC5697745.
# Biological target: FAM-AIP-I, fluorescein-tagged AIP-I (Staphylococcus aureus (group I))
# Assay: fluorescence polarisation
substance,measurement,value
"AgrC-I^R238H, constitutively active full-length AgrC-I mutant, in nanodiscs (receptor)",Kd,51 nM
